Patent US20100169989A1

How the values were obtained:
[1] = target: myostatin mature C-terminal dimer (purified from conditioned medium of CHO cells carrying a myostatin expression construct) (UniProt O14793); test: inhibition of labeled myostatin binding to Act RIIB-transfected COS-7 cells
[2] = target: cell surface binding proteins on L6 myoblasts (GDF-8 receptor); test: I-125 labeled GDF-8 receptor-ligand binding assay on myoblasts

myostatin prodomain peptide (purified from the CHO cell myostatin preparation), sequence (O08689 25-267): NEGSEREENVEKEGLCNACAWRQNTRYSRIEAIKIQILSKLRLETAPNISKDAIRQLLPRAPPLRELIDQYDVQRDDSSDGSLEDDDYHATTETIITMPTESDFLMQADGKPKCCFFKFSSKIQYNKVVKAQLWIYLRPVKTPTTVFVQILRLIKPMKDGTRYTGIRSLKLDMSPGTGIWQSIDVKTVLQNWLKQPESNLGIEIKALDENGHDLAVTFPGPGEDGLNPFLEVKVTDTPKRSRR

## follistatin
[1]
  Ki: 470 pM

## recombinant human GDF-8 (rhGDF-8) homodimer (from UniProt O14793 267-374) (ligand)
[2]
  Kd: 370 pM

## myostatin prodomain peptide (purified from the CHO cell myostatin preparation)
[1]
  fold of Ki against the Ki of follistatin: 50 fold
